In the Immune Epitope Database (IEDB):

How the values were obtained:
HLA-A*68:02 = test: IEDB peptide-MHC binding, cellular MHC/competitive/fluorescence; ≥ and ≤ were set here for values at or beyond the usual limits of such assays
HLA-A*02:06 = test: as above
HLA-A*02:02 = test: as above
HLA-A*02:01 = test: as above
HLA-A*02:03 = test: IEDB peptide-MHC binding, purified MHC/competitive/radioactivity; ≥ and ≤ were set here for values at or beyond the usual limits of such assays
[1] = source organism: Vaccinia virus WR
[2] = source organism: Influenza A virus

Sequence | IC50 (HLA-A*68:02; [1]) | IC50 (HLA-A*02:06; [1]) | IC50 (HLA-A*02:02; [1]) | IC50 (HLA-A*02:01; [1]) | IC50 (HLA-A*02:03; [1]) | IC50 (HLA-A*68:02; [2]) | IC50 (HLA-A*02:06; [2]) | IC50 (HLA-A*02:02; [2]) | IC50 (HLA-A*02:01; [2]) | IC50 (HLA-A*02:03; [2])
GIRCVSNLDI | ≥ 70 µM | 33 µM | 20.1 µM | ≥ 70 µM | 3.87 µM |  |  |  |  | 
EILRNYLRL | 9.23 µM | 12.9 µM | 14 µM | 10.5 µM | 2.09 µM |  |  |  |  | 
ILSEKRKDTI | ≥ 70 µM | ≥ 70 µM | 44 µM | ≥ 70 µM | 0.541 µM |  |  |  |  | 
RTRLYDYFT | 27.2 µM | 48.7 µM | 7.1 µM | 49.5 µM | 3.05 µM |  |  |  |  | 
NTSQRGIL |  |  |  |  |  | ≥ 70 µM | ≥ 70 µM | 5.1 µM | 6.68 µM | 2.79 µM
DAKRNSKSLV | 12.6 µM | 52.1 µM | 13.3 µM | 30.3 µM | 2.87 µM |  |  |  |  | 
ELTSNCTRTT | 5.04 µM | 5.72 µM | 14.6 µM | 15.2 µM | 1.47 µM |  |  |  |  | 
FIVYGRSNA | 5.26 µM | 8.75 µM | 6.09 µM | 16.9 µM | 0.37 µM |  |  |  |  | 
QMYRKFSRCT | 48.2 µM | 14.7 µM | 25.7 µM | 27.1 µM | 2.27 µM |  |  |  |  | 
SMTSDSKSI | 8.09 µM | 56.1 µM | 8.35 µM | 34.8 µM | 2.3 µM |  |  |  |  | 
DIRDKYMEL | 14.7 µM | 14.6 µM | 24.3 µM | 10.3 µM | 3.86 µM |  |  |  |  | 
LAKSVFNSL |  |  |  |  |  | ≥ 70 µM | 17.1 µM | 14 µM | 30.9 µM | 3.1 µM
AAGAAVKGV |  |  |  |  |  | 26 µM | 25.5 µM | ≥ 70 µM | 56.8 µM | 2.3 µM
IAMLKSKNI | 5.87 µM | 10.6 µM | 37.7 µM | 46.7 µM | 0.846 µM |  |  |  |  | 
TLNTMTKDA |  |  |  |  |  | ≥ 70 µM | ≥ 70 µM | 14.7 µM | 10.2 µM | 0.581 µM
NLERETGLSA | 31.3 µM | 15 µM | 17.6 µM | 17.5 µM | 1.66 µM |  |  |  |  | 
AMHDKKIDI | 8 µM | 42 µM | 17.2 µM | 8.85 µM | 1.52 µM |  |  |  |  | 
EIVSHLRAST | 6.33 µM | 12.6 µM | 5.15 µM | ≥ 70 µM | 2.81 µM |  |  |  |  | 
RASAGQISV |  |  |  |  |  | 8.55 µM | 11.5 µM | 38.8 µM | 19.6 µM | 4.96 µM
IIYSKAGNI | 5.39 µM | 13.7 µM | 9.76 µM | 50.7 µM | 0.013 µM |  |  |  |  | 
LMSDNPKAST | ≥ 70 µM | 47.4 µM | 8.88 µM | 8.98 µM | 0.938 µM |  |  |  |  | 
FVKKMLPKII | 14.1 µM | 6.71 µM | 11.1 µM | 32.7 µM | 1.14 µM |  |  |  |  | 
TLNRNQPAA |  |  |  |  |  | ≥ 70 µM | ≥ 70 µM | 11.4 µM | 15.2 µM | 0.583 µM
NALLKHRFEII |  |  |  |  |  | 12.4 µM | 5.36 µM | 11.2 µM | 22.7 µM | 4.1 µM
RAMAWTVV |  |  |  |  |  | ≥ 70 µM | 7.78 µM | 8.18 µM | 7.6 µM | 2.42 µM
GIIITVGML | 19.6 µM | 18.4 µM | 8.67 µM | 6.56 µM | 0.349 µM |  |  |  |  | 
HQRRLVKLL | ≥ 70 µM | 21.3 µM | 15.9 µM | 26.6 µM | 1.68 µM |  |  |  |  | 
